Experimental data: article PMC3835915, “Diversification of Fungal Specific Class A Glutathione Transferases in Saprotrophic Fungi” (PLoS ONE, 2013)

Substrate: S=C=NCCc1ccccc1
Experiment: purified protein
Assay type: biochemical, Phanerodontia chrysosporium
Conditions: 5 mM GSH, pH 6.5, 2% acetonitrile

B1: PcGSTFuA1 (Phanerodontia chrysosporium) (protein)
chain: MAQPIVFYDIPSNERIKHSPWSPNTWKIRYALNYKGLKYKTEWVEYPDIAGVVQKLGGKPTEKTPDGRDHYTLPVIYDPNTKKVVEDSAAIAKYLDETYPDTPKLFPAGTDAFQAAFLDFAWPVLGFPVFMLVILDTANSLLPRSHDYFRSTREQKFGKKLEELATEEEWAKVEAGLAKLKGYLDANGKGNDLLLMGAQGGITYSDIQIASFFVWAKIIWGEGSEKWKRLISLHDGKWAQFYAQFTKFEQVDV
notes: full length, untagged, pET-3d, E. coli BL21(DE3) pSBET; Ala inserted after Met1; dimer; primers encode N-term MAQPIVF, C-term EQVDV
Km: 119.0 ± 14.4 µM | kcat: 510.9 ± 16.0 min⁻¹
